Data set [1] concerns HeLa Kyoto. Description: solubility change mitosis vs G1/S (difference of NP-40 vs SDS log2 ratios) (log2 ratio difference); higher = more soluble in mitosis.
Data set [2] relates to HeLa Kyoto. Description: thermal stability score vs G1/S (z-score of summed log2 fold changes over temperatures); higher = more thermally stable than in G1/S.
In data set [3] the test system is HeLa Kyoto. In words: solubility in G1/S (NP-40 vs SDS abundance) (log2 ratio); higher = more soluble. Particulars: cell cycle stage: G1/S.
Data set [4] deals with HeLa Kyoto. In words: melting temperature (median over replicates), in situ; higher = more thermally stable.
Where [5] appears, read: cell cycle stage: early G1 (4.5 h after nocodazole release).
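Wherever melting temperature (median over replicates), in situ is given: HeLa Kyoto cells synchronized by double thymidine or nocodazole block, proteins quantified by TMT10plex mass spectrometry, three independent biological replicates.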
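Wherever solubility change mitosis vs G1/S (difference of NP-40 vs SDS log2 ratios) is given: synchronized HeLa Kyoto cells (double thymidine block for G1/S, nocodazole release for mitosis), protein amounts in NP-40 versus SDS lysates quantified by mass spectrometry, three biological replicates.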
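Wherever solubility in G1/S (NP-40 vs SDS abundance) is given: HeLa Kyoto cells arrested at G1/S by double thymidine block, proteins quantified by TMT10plex mass spectrometry in mild NP-40 versus SDS extracts, three biological replicates.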
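Wherever thermal stability score vs G1/S (z-score of summed log2 fold changes over temperatures) is given: synchronized HeLa Kyoto cells, proteins quantified by TMT10plex mass spectrometry, three biological replicates, mitosis taken 0.5 h after nocodazole release, G1/S directly after double thymidine block.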

With “MASACGAPGPGGALGSQAPSWYHRDLSRAAAEELLARAGRDGSFLVRDSESVAGAFALCVLYQKHVHTYRILPDGEDFLAVQTSQGVPVRRFQTLGELIGLYAQPNQGLVCALLLPVEGEREPDPPDDRDASDGEDEKPPLPPRSGSTSISAPTGPSSPLPAPETPTAPAAESAPNGLSTVSHDYLKGSYGLDLEAVRGGASHLPHLTRTLATSCRRLHSEVDKVLSGLEILSKVFDQQSSPMVTRLLQQQNLPQTGEQELESLVLKLSVLKDFLSGIQKKALKALQDMSSTAPPAPQPSTRKAKTIPVQAFEVKLDVTLGDLTKIGKSQKFTLSVDVEGGRLVLLRRQRDSQEDWTTFTHDRIRQLIKSQRVQNKLGVVFEKEKDRTQRKDFIFVSARKREAFCQLLQLMKNKHSKQDEPDMISVFIGTWNMGSVPPPKNVTSWFTSKGLGKTLDEVTVTIPHDIYVFGTQENSVGDREWLDLLRGGLKELTDLDYRPIAMQSLWNIKVAVLVKPEHENRISHVSTSSVKTGIANTLGNKGAVGVSFMFNGTSFGFVNCHLTSGNEKTARRNQNYLDILRLLSLGDRQLNAFDISLRFTHLFWFGDLNYRLDMDIQEILNYISRKEFEPLLRVDQLNLEREKHKVFLRFSEEEISFPPTYRYERGSRDTYAWHKQKPTGVRTNVPSWCDRILWKSYPETHIICNSYGCTDDIVTSDHSPVFGTFEVGVTSQFISKKGLSKTSDQAYIEFESIEAIVKTASRTKFFIEFYSTCLEEYKKSFENDAQSSDNINFLKVQWSSRQLPTLKPILADIEYLQDQHLLLTVKSMDGYESYGECVVALKSMIGSTAQQFLTFLSHRGEETGNIRGSMKVRVPTERLGTRERLYEWISIDKDEAGAKSKAPSVSRGSQEPRSGSRKPAFTEASCPLSRLFEEPEKPPPTGRPPAPPRAAPREEPLTPRLKPEGAPEPEGVAAPPPKNSFNNPAYYVLEGVPHQLLPPEPPSPARAPVPSATKNKVAITVPAPQLGHHRHPRVGEGSSSDEESGGTLPPPDFPPPPLPDSAIFLPPSLDPLPGPVVRGRGGAEARGPPPPKAHPRPPLPPGPSPASTFLGEVASGDDRSCSVLQMAKTLSEVDYAPAGPARSALLPGPLELQPPRGLPSDYGRPLSFPPPRIRESIQEDLAEEAPCLQGGRASGLGEAGMSAWLRAIGLERYEEGLVHNGWDDLEFLSDITEEDLEEAGVQDPAHKRLLLDTLQLSK [INPPL1]”, the “solubility change mitosis (log2)” value with HeLa Kyoto [1] is -0.119. For the same sequence, the thermal stability score is 0.612 with HeLa Kyoto [2] (setting [5]) and 2.56 in the data set with HeLa Kyoto [2] (cell cycle stage: mitosis). Moreover, the “solubility in G1/S (log2)” value in the data set on HeLa Kyoto [3] turned out to be 0.0138. Besides, the melting temperature in the data set with HeLa Kyoto [4] (cell cycle stage: G1/S) and in the data set with HeLa Kyoto [4] (cell cycle stage: mitosis) was 48.6 °C each time.
Regarding “MASESDTEEFYDAPEDVHLGGGYPVGSPGKVGLSTFKETENTAYKVGNESPVQELKQDVSKKIIESIIEESQKVLQLEDDSLDSKGKELSDQATASPIVARTDLSNIPGLLAIDQVLPEESQKAESQNTFEETELELKKCFPSDETCEKPVDETTKLTQTSSTEQLNVLETETEVLNKEAVEVKGGGDVLEPVSSDSLSTKDFAAVEEVAPAKPPRHLTPEPDIVASTKKPVPARPPPPTNFPPPRPPPPSRPAPPPRKRKSELEFETLKTPDIDVPKENITSDSLLTASMASESTVKDSQPSLDLASATSGDKIVTAQENGKAPDGQTVAGEVMGPQRPRSNSGRELTDEEILASVMIKNLDTGEEIPLSLAEEKLPTGINPLTLHIMRRTKEYVSNDAAQSDDEEKLQSQPTDTDGGRLKQKTTQLKKFLGKSVKRAKHLAEEYGERAINKVKSVRDEVFHTDQDDPSSSDDEGMPYTRPVKFKAAHGFKGPYDFDQIKVVQDLSGEHMGAVWTMKFSHCGRLLASAGQDNVVRIWALKNAFDYFNNMRMKYNTEGRVSPSPSQESLSSSKSDTDTGVCSGTDEDPDDKNAPFRQRPFCKYKGHTADLLDLSWSKNYFLLSSSMDKTVRLWHISRRECLCCFQHIDFVTAIAFHPRDDRYFLSGSLDGKLRLWNIPDKKVALWNEVDGQTKLITAANFCQNGKYAVIGTYDGRCIFYDTEHLKYHTQIHVRSTRGRNKVGRKITGIEPLPGENKILVTSNDSRIRLYDLRDLSLSMKYKGYVNSSSQIKASFSHDFTYLVSGSEDKYVYIWSTYHDLSKFTSVRRDRNDFWEGIKAHNAVVTSAIFAPNPSLMLSLDVQSEKSEGNEKSEDAEVLDATPSGIMKTDNTEVLLSADFTGAIKVFVNKRKNVS [WDR44]”, the “solubility change mitosis (log2)” value in the data set on HeLa Kyoto [1] is -0.145. The thermal stability score in the data set with HeLa Kyoto [2] (setting [5]) was -1.63; in the data set with HeLa Kyoto [2] (cell cycle stage: mitosis), -2.21. In the data set on HeLa Kyoto [3], the “solubility in G1/S (log2)” value is -0.102. The melting temperature stood at 55.7 °C with HeLa Kyoto [4] (cell cycle stage: G1/S) and 55.1 °C in the data set on HeLa Kyoto [4] (cell cycle stage: mitosis).
In the case of “MASFVTEVLAHSGRLEKEDLGTRISRLTRRVEEIKGEVCNMISKKYSEFLPSMQSAQGLITQVDKLSEDIDLLKSRIESEVRRDLHVSTGEFTDLKQQLERDSVVLSLLKQLQEFSTAIEEYNCALTEKKYVTGAQRLEEAQKCLKLLKSRKCFDLKILKSLSMELTIQKQNILYHLGEEWQKLIVWKFPPSKDTSSLESYLQTELHLYTEQSHKEEKTPMPPISSVLLAFSVLGELHSKLKSFGQMLLKYILRPLASCPSLHAVIESQPNIVIIRFESIMTNLEYPSPSEVFTKIRLVLEVLQKQLLDLPLDTDLENEKTSTVPLAEMLGDMIWEDLSECLIKNCLVYSIPTNSSKLQQYEEIIQSTEEFENALKEMRFLKGDTTDLLKYARNINSHFANKKCQDVIVAARNLMTSEIHNTVKIIPDSKINVPELPTPDEDNKLEVQKVSNTQYHEVMNLEPENTLDQHSFSLPTCRISESVKKLMELAYQTLLEATTSSDQCAVQLFYSVRNIFHLFHDVVPTYHKENLQKLPQLAAIHHNNCMYIAHHLLTLGHQFRLRLAPILCDGTATFVDLVPGFRRLGTECFLAQMRAQKGELLERLSSARNFSNMDDEENYSAASKAVRQVLHQLKRLGIVWQDVLPVNIYCKAMGTLLNTAISEVIGKITALEDISTEDGDRLYSLCKTVMDEGPQVFAPLSEESKNKKYQEEVPVYVPKWMPFKELMMMLQASLQEIGDRWADGKGPLAAAFSSSEVKALIRALFQNTERRAAALAKIK [ZW10]”, the “solubility change mitosis (log2)” value in the data set with HeLa Kyoto [1] is -0.19. In addition, the figures for the thermal stability score in the data set with HeLa Kyoto [2] (setting [5]) and in the data set on HeLa Kyoto [2] (cell cycle stage: mitosis) were 0.485 and 1.13, respectively. Also, the “solubility in G1/S (log2)” value in the data set with HeLa Kyoto [3] was -0.218. Further, the melting temperature is 49.6 °C in the data set on HeLa Kyoto [4] (cell cycle stage: G1/S) and 49.5 °C in the data set with HeLa Kyoto [4] (cell cycle stage: mitosis).
“MASGEHSPGSGAARRPLHSAQAVDVASASNFRAFELLHLHLDLRAEFGPPGPGAGSRGLSGTAVLDLRCLEPEGAAELRLDSHPCLEVTAAALRRERPGSEEPPAEPVSFYTQPFSHYGQALCVSFPQPCRAAERLQVLLTYRVGEGPGVCWLAPEQTAGKKKPFVYTQGQAVLNRAFFPCFDTPAVKYKYSALIEVPDGFTAVMSASTWEKRGPNKFFFQMCQPIPSYLIALAIGDLVSAEVGPRSRVWAEPCLIDAAKEEYNGVIEEFLATGEKLFGPYVWGRYDLLFMPPSFPFGGMENPCLTFVTPCLLAGDRSLADVIIHEISHSWFGNLVTNANWGEFWLNEGFTMYAQRRISTILFGAAYTCLEAATGRALLRQHMDITGEENPLNKLRVKIEPGVDPDDTYNETPYEKGFCFVSYLAHLVGDQDQFDSFLKAYVHEFKFRSILADDFLDFYLEYFPELKKKRVDIIPGFEFDRWLNTPGWPPYLPDLSPGDSLMKPAEELAQLWAAEELDMKAIEAVAISPWKTYQLVYFLDKILQKSPLPPGNVKKLGDTYPSISNARNAELRLRWGQIVLKNDHQEDFWKVKEFLHNQGKQKYTLPLYHAMMGGSEVAQTLAKETFASTASQLHSNVVNYVQQIVAPKGS [RNPEP]”: the “solubility change mitosis (log2)” value with HeLa Kyoto [1] was -0.179. Besides, the results for the thermal stability score in the data set with HeLa Kyoto [2] (setting [5]) and in the data set on HeLa Kyoto [2] (cell cycle stage: mitosis) were 1.06 and 1.25, respectively. The “solubility in G1/S (log2)” value in the data set on HeLa Kyoto [3] came out at 0.182. The melting temperature in the data set on HeLa Kyoto [4] (cell cycle stage: G1/S) amounted to 50.1 °C; with HeLa Kyoto [4] (cell cycle stage: mitosis), 50.3 °C.

The record behind these values is the supplement of paper PMC5998384.
